These results are taken from US5981483, “Compositions comprising modulators of cytokines of the TGF-β superfamily” (Mount Sinai Hospital Corporation, dated 1999).

B1: recombinant human BMP-2 (ligand)
chain: QAKHKQRKRLKSSCKRHPLYVDFSDVGWNDWIVAPPGYHAFYCHGECPFPLADHLNSTNHAIVQTLVNSVNSKIPKACCVPTELSAISMLYLDENEKVVLKNYQDMVVEGCGCR
B2: bovine fetuin (other)
chain: IPLDPVAGYKEPACDDPDTEQAALAAVDYINKHLPRGYKHTLNQIDSVKVWPRRPTGEVYDIEIDTLETTCHVLDPTPLANCSVRQQTQHAVEGDCDIHVLKQDGQFSVLFTKCDSSPDSAEDVRKLCPDCPLLAPLNDSRVVHAVEVALATFNAESNGSYLQLVEISRAQFVPLPVSVSVEFAVAATDCIAKEVVDPTKCNLLAEKQYGFCKGSVIQKALGGEDVRVTCTLFQTQPVIPQPQPDGAEAEAPSAVPDAAGPTPSAAGPPVASVVVGPSVVAVPLPLHRAHYDLRHTFSGVASVESSSGEAFHVGKTPIVGQPSIPGGPVRLCPGRIRYFKI

Bridges are numbered along the chain shown (N, C = ends). Where no end group is shown, it is not given here.

The target in one experiment is bovine serum albumin (bovine, UniProt P02769). Nature of the experiment: SPR (BIAcore), BMP-2 immobilized. The protocol:
(§1) In this system, a purified protein serving as the ligand is covalently coupled to a carboxymethylated dextran surface, and binding molecules (i.e. the analyte) are passed in a fluid phase across the surface. Binding of the analyte to ligand causes a change in reflected light which is directly proportional to mass bound, and is measured in arbitrary response units (R.U.). Analyte-ligand binding is observed as both increasing response with time during the injection of analyte, and the difference in the position of the baseline before and after injection.

Experiment [1] concerns the target B2. Nature of the experiment: SPR (BIAcore); analyte over immobilized cytokine. The procedure: as §1
(§2) Data was analyzed using the BIA-evaluation software (Pharmacia Biosensor). The association rate constant, $kass$, was calculated by first plotting the change in response with time versus response (i.e. dR/dT vs R). When the slope of the line from this graph is plotted versus analyte concentration (i.e d(dR/dT)/dR vs C), $kass$ is obtained from the slope of the line. The dissociation rate constant, $kdiss$, is obtained during the decrease in response with time after analyte injection is discontinued. Specifically, $kdiss$ was obtained from the slope of the line in a plot of $\ln(Rt1/Rtn)$ vs time. The affinity constants were calculated from K_D = kdiss/kass. Variance for $kass$ is standard error of the linear regression plot, and for $kdiss$ values are the mean ± range of 3 or more independent injections.
(§3) Data was analyzed using the BIA-evaluation software (Pharmacia Biosensor). The association rate constant, $kass$, was calculated by first plotting the change in response with time versus response (ie. dR/dT vs R).
In general terms: SPR reads the build-up and loss of mass on a sensor chip optically.

Experiment [2] has as its target T1, adult human fetuin/α2-HS glycoprotein (human, UniProt P02765).
T1 sequence: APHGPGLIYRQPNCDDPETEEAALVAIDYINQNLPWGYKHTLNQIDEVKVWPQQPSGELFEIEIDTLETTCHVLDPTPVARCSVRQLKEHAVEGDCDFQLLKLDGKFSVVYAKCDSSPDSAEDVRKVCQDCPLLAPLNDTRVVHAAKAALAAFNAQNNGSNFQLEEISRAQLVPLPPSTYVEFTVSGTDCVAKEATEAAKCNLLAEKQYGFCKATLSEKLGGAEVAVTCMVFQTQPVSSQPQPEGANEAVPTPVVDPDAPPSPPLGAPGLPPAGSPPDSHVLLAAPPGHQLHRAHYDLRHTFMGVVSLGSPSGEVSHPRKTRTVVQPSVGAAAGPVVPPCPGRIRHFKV
Nature of the experiment: SPR (BIAcore); analyte over immobilized cytokine. The protocol:
as §1
(§4) Binding constants for fetuins and TRH1 peptide interactions with TGF-β and BMPs measured using the BIAcore and BIA-evaluation software (Pharmacia Biosensor). The change in response with time was plotted for each analyte concentration (ie. dR/dT vs R), and the slope of these lines were then plotted as a function of analyte concentration (i.e d(dR/dT)/dR vs C), where the slope yields $kass$. The dissociation rate constant, $kdiss$, is obtained after analyte injection is discontinued as the slope of $\ln(Rtl/Rtn)$ vs time. K_Ds are $kdiss/kass$. Variance for $kass$ is standard error of the linear regression plot, and for $kdiss$ values are the mean ± range of 3 or more independent injections.

The target of experiment [3] is B2. Kind of experiment: SPR (BIAcore); analyte over immobilized cytokine; repeated calculation. The procedure:
as §2, §4

The target of experiment [4] is B1. Kind of experiment: SPR (BIAcore).
Experiment [5] deals with T2, purified human TGF-β1 (human, UniProt P01137). Kind of experiment: SPR (BIAcore); analyte over immobilized cytokine. The procedure:
as §1, §2, §3

The target in experiment [6] is T2, purified human TGF-β1. Kind of experiment: SPR (BIAcore); analyte over immobilized cytokine; repeated calculation. The protocol: as §2, §4
Experiment [7] deals with B1. Nature of the experiment: SPR (BIAcore); analyte over immobilized cytokine. The protocol: as §1, §2, §3
Experiment [8] has as its target B1. Kind of experiment: SPR (BIAcore); analyte over immobilized cytokine; repeated calculation. The protocol:
as §2, §4

For B1, the binding result in the experiment with bovine serum albumin is “no binding (tested: 0.22, 0.29, 0.44, 0.59, 0.88 µM)”. For the same molecule, the figures for the Kd (with bovine fetuin [1]; in experiment [2]; with bovine fetuin [3]) were 36 nM, 51 nM and 27 nM, respectively.
Regarding B2, the “fold greater affinity than fetuin binding to TGF-β1” value with recombinant human BMP-2 [4] was about 100 times.

B3: reduced and alkylated TRH1b peptide from TβRII (peptide)
peptide: CVAVWRKNDENITLETVCHD
modifications: also: Cys reduced and alkylated, agent not given here, exact limits not given here
As for B3, the Kd with purified human TGF-β1 [5] and with purified human TGF-β1 [6] was over 10000 nM in each case.

B4: cyclized TRH1b peptide from TβRII (peptide)
peptide: CVAVWRKNDENITLETVC
modifications: disulfide 1-18 (inferred); also: exact limits not given here, terminal residues may be removed
On to B4, for which the Kd in the experiment with purified human TGF-β1 [5] is 520 nM; with recombinant human BMP-2 [7], over 10000 nM; in the experiment with purified human TGF-β1 [6] it was 1000 nM; in the experiment with recombinant human BMP-2 [8], over 10000 nM. Moreover, the koff was 0.0019 s⁻¹ with purified human TGF-β1 [5] and 0.0023 s⁻¹ in the experiment with purified human TGF-β1 [6]. Besides, the kon with purified human TGF-β1 [5] is 3700 M⁻¹ s⁻¹; with purified human TGF-β1 [6], 2200 M⁻¹ s⁻¹.

As a reminder, the Kd is the free concentration of one partner at which half of the binding sites on the other are occupied at equilibrium, for simple one-to-one binding. Broadly, the koff is a measure of how fast the partners let go of each other. One may read the kon as the rate constant with which the complex forms.
